B1: TPR t1 (parent)
chain: GACCAAUCUGCCCUCAGAGCUCGAGAACAUCUUCGGAUGCAGAGGAGGCAGGCUUCGGUGGCGCGAUAGCGCCAACGUCCUCAACCUCCAAUGCAUCCCACCACAUGAUGAUGCCUGAAGAGCCUUGGUUUUUUG

This data set covers variants of B1. As to the kind of experiment: polymerase ribozyme fitness, log enrichment relative to wild type (log ratio); higher = more active; in vitro selection for triplet polymerase activity. In short, it runs like this:
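Both subunits of a heterodimeric triplet polymerase ribozyme were given their own mutant library, built by PCR and transcribed. Each library was annealed with a biotinylated primer, the partner subunit and triplets, incubated frozen at −7 °C, and its extended constructs gel-excised, captured on streptavidin beads and amplified by RT-PCR, all in one round done in triplicate. Fitness is the logarithm of genotype enrichment relative to wild-type enrichment, with replicates averaged by inverse-variance weighting. That logarithm is base 2, and Illumina-sequenced genotypes needed ≥10 input reads and ≥1 read per output.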
C40G U87G: the “polymerase ribozyme fitness (log ratio)” value was -1.6.
On to C40U C62G G110U, for which the “polymerase ribozyme fitness (log ratio)” value was -4.6.
For C40U C72G G117U U130A the value was -4.89; for C40A G60A G93A A121U, 1; for C40U A46G G61U G110A U116A, -3.75.
For C40U G47C U116G U132C the value was -4.13; for C40A G63U C104U C115G, -3.72; for C40U G69C C85U A100G U106C U112C, -4.82.
Regarding C40G G135U, the “polymerase ribozyme fitness (log ratio)” value was -1.71.
On to C40A U87A C88U G135C, for which the “polymerase ribozyme fitness (log ratio)” value is -2.71.
Consider C40U U55C C70U, for which the “polymerase ribozyme fitness (log ratio)” value is -1.45.
Consider C40U C115U U125G U133C, for which the “polymerase ribozyme fitness (log ratio)” value is -0.584.
A41C C82U G120A: the “polymerase ribozyme fitness (log ratio)” value came to 0.0706.
Take C40U G47C G58A G117A: the “polymerase ribozyme fitness (log ratio)” value is -4.37.
C40U C73U C80U G117U: the “polymerase ribozyme fitness (log ratio)” value is -4.15.
Take C40G U125A: the “polymerase ribozyme fitness (log ratio)” value is -1.17.
In the case of C40G C102A A118U, the “polymerase ribozyme fitness (log ratio)” value is -2.92.
Turning to A41C C82A A111C, the “polymerase ribozyme fitness (log ratio)” value was -2.14.
A41C C70A U81A U92C: the “polymerase ribozyme fitness (log ratio)” value is -5.78.
Regarding C40U A74G C88U G120A A121C, the “polymerase ribozyme fitness (log ratio)” value is -0.0609.
Regarding C40A G61A A105G, the “polymerase ribozyme fitness (log ratio)” value is -4.93.
With C40A G45A C56U G110C the figure was -6.54; with A41C G48U G61C U92A, -5.63.
For C40G C89G G93A the value was -2.6; for C40A U54G C62U, -1.83.
For C40G A84U the value was -1.56; for C40U A50U G52U U87A C102A U106A A118G, -7.38.
On to C40A U112A, for which the “polymerase ribozyme fitness (log ratio)” value was -0.958.
For C40G A41U G45A G60A A91U the value was -4.96; for C40U A46U G52A C70U, -3.49.
In the case of C40U G44U U78A C89A A111C G117A G135C, the “polymerase ribozyme fitness (log ratio)” value is -3.17.
Take C40G G128A: the “polymerase ribozyme fitness (log ratio)” value is -3.61.
With C40U C88A U106C, the “polymerase ribozyme fitness (log ratio)” value was -1.06.
C40U C56U U78C C89G: the “polymerase ribozyme fitness (log ratio)” value is -2.2.
On to C40G C114U C123U, for which the “polymerase ribozyme fitness (log ratio)” value is -4.09.
Take C40U A74C G77U C94U C114G: the “polymerase ribozyme fitness (log ratio)” value was -2.59.
Regarding C40U C97U C102A A111G, the “polymerase ribozyme fitness (log ratio)” value was -2.88.
For C40A G69U the value was -0.43; for C40A G69A, -4.81; for C40U C76U, -0.869.
Turning to C40G U112C, the “polymerase ribozyme fitness (log ratio)” value is 0.984.
For the variant C40A G44C C53A U55G G128A, the “polymerase ribozyme fitness (log ratio)” value was -3.45.
Take C40G A75U G127A: the “polymerase ribozyme fitness (log ratio)” value is -2.31.
On to C40G C56U C88U G122U, for which the “polymerase ribozyme fitness (log ratio)” value was -2.63.
With C40A G48A U55A G60U A95G G120C the figure was -1.07; with C40A G120A, -0.957.
For C40A G120U the value was -0.939; for C40G G47U C49A, -3.74; for C40U G45C C49U G63U A83U C124G, -6.14.
As for C40U C101A U112C, the “polymerase ribozyme fitness (log ratio)” value is 0.157.
Regarding C40U G42A C56U C80U G120U U132C, the “polymerase ribozyme fitness (log ratio)” value was -3.64.
With C40G G44C A74U, the “polymerase ribozyme fitness (log ratio)” value is -1.5.
Regarding A41C C73A C86G C104A, the “polymerase ribozyme fitness (log ratio)” value was -4.53.
As for C40U C53A C73A C104U, the “polymerase ribozyme fitness (log ratio)” value stood at 0.971.
On to C40U G61U G71A C99U G120A, for which the “polymerase ribozyme fitness (log ratio)” value was -6.74.
Take C40A G63A A84U: the “polymerase ribozyme fitness (log ratio)” value was -2.88.
In the case of C40U G48U C79A C124U, the “polymerase ribozyme fitness (log ratio)” value was -3.57.
C40G C56A C79G C101U G110A: the “polymerase ribozyme fitness (log ratio)” value was -6.02.
Consider A41C C98U G117A, for which the “polymerase ribozyme fitness (log ratio)” value was -5.3.
With C40U C56A A91G, the “polymerase ribozyme fitness (log ratio)” value was -2.75.
Take C40U A41C G48U C56U G58C G63U: the “polymerase ribozyme fitness (log ratio)” value was -3.13.
For the variant C40U G60A A95U G117C A121C, the “polymerase ribozyme fitness (log ratio)” value is -6.15.
With A41C C64G the figure was -6.49; with C40A G48A G61A U92A C94U A105G, -7.09.
C40G G48U A105U: the “polymerase ribozyme fitness (log ratio)” value was -3.14.
Turning to C40G C56A C86U, the “polymerase ribozyme fitness (log ratio)” value was -1.71.
In the case of C40A G60A U81A, the “polymerase ribozyme fitness (log ratio)” value is -2.66.
Regarding C40U G63C C115A G135U, the “polymerase ribozyme fitness (log ratio)” value is -1.95.
With C40U U131A, the “polymerase ribozyme fitness (log ratio)” value is -0.601.
Take C40U U112A U116C: the “polymerase ribozyme fitness (log ratio)” value is -1.95.
For C40U G61A, the “polymerase ribozyme fitness (log ratio)” value is -0.522.
With C40U G61C the figure was -2.59; with C40U C53U A66G, -1.67; with C40G A46G G61C C85U, -6.04.
In the case of A41C G45U G69U C124A U126G, the “polymerase ribozyme fitness (log ratio)” value was -1.04.
Regarding C40U A74G, the “polymerase ribozyme fitness (log ratio)” value was -0.128.
With C40U C73U G113A the figure was -1.98.
For C40U C72U U116G G120C G128U, the “polymerase ribozyme fitness (log ratio)” value was -4.53.
C40G A50U G120C: the “polymerase ribozyme fitness (log ratio)” value is -0.881.
For the variant C40A U129C, the “polymerase ribozyme fitness (log ratio)” value is -1.74.
With A41C C98U, the “polymerase ribozyme fitness (log ratio)” value was -2.48.
For C40A G45U G63A, the “polymerase ribozyme fitness (log ratio)” value is -2.99.
For the variant C40G G47U C64U G93U U129C U133G, the “polymerase ribozyme fitness (log ratio)” value is -3.04.
For the variant C40U G110U, the “polymerase ribozyme fitness (log ratio)” value is -2.35.
